Patent US20240092889A1 (Chugai, published 2024)
Residue numbers refer to the chain shown, from its start. Numbers in names are those of the source.

T1: recombinant human C1r2s2 tetramer (human, UniProt P09871 16-688; P00736 18-705)
T1 construct: C1s and C1r co-expressed in HEK293/FreeStyle 293-F and purified from conditioned medium
T1 chain 1: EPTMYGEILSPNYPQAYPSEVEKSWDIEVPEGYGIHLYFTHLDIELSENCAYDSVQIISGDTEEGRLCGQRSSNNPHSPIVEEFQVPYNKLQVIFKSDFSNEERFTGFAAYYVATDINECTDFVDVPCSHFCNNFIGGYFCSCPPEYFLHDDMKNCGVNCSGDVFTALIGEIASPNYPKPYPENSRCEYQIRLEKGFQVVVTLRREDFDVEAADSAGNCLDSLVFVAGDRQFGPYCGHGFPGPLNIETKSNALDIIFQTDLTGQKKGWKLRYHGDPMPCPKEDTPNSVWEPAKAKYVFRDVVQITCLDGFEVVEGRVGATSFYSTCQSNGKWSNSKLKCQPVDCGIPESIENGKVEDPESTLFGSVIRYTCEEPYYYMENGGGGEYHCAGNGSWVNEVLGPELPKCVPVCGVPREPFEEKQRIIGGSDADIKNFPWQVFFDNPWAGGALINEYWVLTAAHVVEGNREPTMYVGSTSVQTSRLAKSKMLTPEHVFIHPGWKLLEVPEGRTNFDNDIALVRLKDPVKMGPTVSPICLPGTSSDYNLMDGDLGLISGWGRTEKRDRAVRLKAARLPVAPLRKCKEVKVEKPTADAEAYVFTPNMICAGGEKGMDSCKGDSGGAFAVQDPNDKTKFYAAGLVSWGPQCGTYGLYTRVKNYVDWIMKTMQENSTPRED
T1 chain 2: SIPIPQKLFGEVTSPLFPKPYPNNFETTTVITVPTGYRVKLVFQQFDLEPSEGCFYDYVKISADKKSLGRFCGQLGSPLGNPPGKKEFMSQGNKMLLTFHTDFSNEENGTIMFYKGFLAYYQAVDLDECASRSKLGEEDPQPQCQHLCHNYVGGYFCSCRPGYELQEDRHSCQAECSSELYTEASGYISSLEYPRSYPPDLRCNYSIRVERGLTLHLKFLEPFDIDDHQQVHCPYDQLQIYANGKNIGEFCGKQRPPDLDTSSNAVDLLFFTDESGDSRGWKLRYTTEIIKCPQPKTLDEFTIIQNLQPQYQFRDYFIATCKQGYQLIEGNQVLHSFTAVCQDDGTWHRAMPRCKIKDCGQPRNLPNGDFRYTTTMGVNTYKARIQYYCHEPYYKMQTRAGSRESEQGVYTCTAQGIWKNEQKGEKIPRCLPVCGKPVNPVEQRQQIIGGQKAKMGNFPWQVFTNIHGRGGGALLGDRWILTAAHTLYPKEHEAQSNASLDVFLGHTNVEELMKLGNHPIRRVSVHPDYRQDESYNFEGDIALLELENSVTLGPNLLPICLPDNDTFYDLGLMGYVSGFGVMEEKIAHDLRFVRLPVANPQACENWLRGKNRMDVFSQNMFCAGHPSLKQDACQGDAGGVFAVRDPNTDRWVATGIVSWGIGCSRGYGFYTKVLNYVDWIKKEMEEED

B1: AL0451 (antibody, human IgG1, kappa, V domains shown)
VH: QVQLVESGGGVVQPGRSLRLSCAASGFTFSAYAMNWIRQPPGKGLEWIGLIYGSGSTFYASWAKGRVTISVDTSKNQFSLKLSSVTAADTAVYYCARGRSVNYNSDFHLWGQGTLVTVSS
VL: DIQMTQSPSSLSASVGDRVTITCQASQSLHDKKNLAWYQQKPGQPPKLLIYGASTLESGVPSRFSGSGSGTDFTLTISSLQPEDFATYYCQGEFSASSADCNTFGQGTKVEIKR
notes: COS0637temp with VL C94A (Kabat), already in the VL entry
B2: AL0460 (antibody, human IgG1, kappa, V domains shown)
VH: B1 VH
VL: B1 VL with A96M
notes: COS0637temp with VL C94M (Kabat), already in the VL entry
B3: AL0454 (antibody, human IgG1, kappa, V domains shown)
VH: B1 VH
VL: B1 VL with A96F
notes: COS0637temp with VL C94F (Kabat), already in the VL entry
B4: AL0550 (antibody, human IgG1, kappa, V domains shown)
VH: B1 VH
VL: B1 VL with A96C, C101L
notes: COS0637temp with VL C95dL (Kabat), already in the VL entry
B5: AL0544 (antibody, human IgG1, kappa, V domains shown)
VH: B1 VH
VL: B1 VL with A96C, C101E
notes: COS0637temp with VL C95dE (Kabat), already in the VL entry
B6: AL0468 (antibody, human IgG1, kappa, V domains shown)
VH: B1 VH
VL: B1 VL with A96W
notes: COS0637temp with VL C94W (Kabat), already in the VL entry
B7: AL0455 (antibody, human IgG1, kappa, V domains shown)
VH: B1 VH
VL: B1 VL with A96G
notes: COS0637temp with VL C94G (Kabat), already in the VL entry
B8: AL0549 (antibody, human IgG1, kappa, V domains shown)
VH: B1 VH
VL: B1 VL with A96C, C101K
notes: COS0637temp with VL C95dK (Kabat), already in the VL entry
B9: AL0552 (antibody, human IgG1, kappa, V domains shown)
VH: B1 VH
VL: B1 VL with A96C, C101N
notes: COS0637temp with VL C95dN (Kabat), already in the VL entry
B10: AL0551 (antibody, human IgG1, kappa, V domains shown)
VH: B1 VH
VL: B1 VL with A96C, C101M
notes: COS0637temp with VL C95dM (Kabat), already in the VL entry
B11: AL0462 (antibody, human IgG1, kappa, V domains shown)
VH: B1 VH
VL: B1 VL with A96P
notes: COS0637temp with VL C94P (Kabat), already in the VL entry
B12: AL0547 (antibody, human IgG1, kappa, V domains shown)
VH: B1 VH
VL: B1 VL with A96C, C101H
notes: COS0637temp with VL C95dH (Kabat), already in the VL entry
B13: AL0464 (antibody, human IgG1, kappa, V domains shown)
VH: B1 VH
VL: B1 VL with A96R
notes: COS0637temp with VL C94R (Kabat), already in the VL entry
B14: AL0546 (antibody, human IgG1, kappa, V domains shown)
VH: B1 VH
VL: B1 VL with A96C, C101G
notes: COS0637temp with VL C95dG (Kabat), already in the VL entry
B15: AL0456 (antibody, human IgG1, kappa, V domains shown)
VH: B1 VH
VL: B1 VL with A96H
notes: COS0637temp with VL C94H (Kabat), already in the VL entry
B16: AL0458 (antibody, human IgG1, kappa, V domains shown)
VH: B1 VH
VL: B1 VL with A96K
notes: COS0637temp with VL C94K (Kabat), already in the VL entry
B17: AL0469 (antibody, human IgG1, kappa, V domains shown)
VH: B1 VH
VL: B1 VL with A96Y
notes: COS0637temp with VL C94Y (Kabat), already in the VL entry
B18: AL0459 (antibody, human IgG1, kappa, V domains shown)
VH: B1 VH
VL: B1 VL with A96L
notes: COS0637temp with VL C94L (Kabat), already in the VL entry
B19: AL0545 (antibody, human IgG1, kappa, V domains shown)
VH: B1 VH
VL: B1 VL with A96C, C101F
notes: COS0637temp with VL C95dF (Kabat), already in the VL entry
B20: AL0463 (antibody, human IgG1, kappa, V domains shown)
VH: B1 VH
VL: B1 VL with A96Q
notes: COS0637temp with VL C94Q (Kabat), already in the VL entry
B21: AL0453 (antibody, human IgG1, kappa, V domains shown)
VH: B1 VH
VL: B1 VL with A96E
notes: COS0637temp with VL C94E (Kabat), already in the VL entry
B22: AL0452 (antibody, human IgG1, kappa, V domains shown)
VH: B1 VH
VL: B1 VL with A96D
notes: COS0637temp with VL C94D (Kabat), already in the VL entry
B23: AL0543 (antibody, human IgG1, kappa, V domains shown)
VH: B1 VH
VL: B1 VL with A96C, C101D
notes: COS0637temp with VL C95dD (Kabat), already in the VL entry
B24: AL0461 (antibody, human IgG1, kappa, V domains shown)
VH: B1 VH
VL: B1 VL with A96N
notes: COS0637temp with VL C94N (Kabat), already in the VL entry
B25: AL0457 (antibody, human IgG1, kappa, V domains shown)
VH: B1 VH
VL: B1 VL with A96I
notes: COS0637temp with VL C94I (Kabat), already in the VL entry
B26: AL0466 (antibody, human IgG1, kappa, V domains shown)
VH: B1 VH
VL: B1 VL with A96T
notes: COS0637temp with VL C94T (Kabat), already in the VL entry
B27: AL0548 (antibody, human IgG1, kappa, V domains shown)
VH: B1 VH
VL: B1 VL with A96C, C101I
notes: COS0637temp with VL C95dI (Kabat), already in the VL entry
B28: AL0542 (antibody, human IgG1, kappa, V domains shown)
VH: B1 VH
VL: B1 VL with A96C, C101A
notes: COS0637temp with VL C95dA (Kabat), already in the VL entry
B29: AL0465 (antibody, human IgG1, kappa, V domains shown)
VH: B1 VH
VL: B1 VL with A96S
notes: COS0637temp with VL C94S (Kabat), already in the VL entry
B30: AL0467 (antibody, human IgG1, kappa, V domains shown)
VH: B1 VH
VL: B1 VL with A96V
notes: COS0637temp with VL C94V (Kabat), already in the VL entry

Molecular target: T1, recombinant human C1r2s2 tetramer
Experiment: SPR (BIACORE), antibody captured by ProL, human C1r2s2 injected at 100 nM, pH 7.4, 37 C
Description: Analysis of interaction between antibody variants and the human C1r2s2 prepared as mentioned above was carried out at pH7.4, at 37 degrees C. using BIACORE® T200 instrument (GE Healthcare) or BIACORE® 4000 (GE Healthcare). ProL (BioVision) was immobilized onto a CM4 sensorchip using amine coupling kit (GE Healthcare) according to the recommended settings by GE Healthcare. Antibodies and analytes were diluted into the respective running buffers, ACES pH7.4 (20 mM ACES (N-(2-Acetamido)-2-aminoethanesulfonic acid), 150 mM NaCl, 1.2 mM CaCl2, 1 mg/ml bovine serum albumin (BSA), 1 mg/ml CMD (CM-Dextran sodium salt), 0.05% Tween® 20 (polysorbate 20), 0.005 w/v % NaN3). Each antibody was captured onto the sensor surface by ProL. Antibody capture levels were aimed at 200 resonance units (RU). Then, recombinant human C1r2s2 was injected at concentrations of 25 and 100 nM followed by dissociation at pH7.4. The surface was regenerated using 10 mM Glycine-HCl, pH1.5.

binding result | Binder
no binding (tested: 100 nM) | B1
no binding (tested: 100 nM) | B2
no binding (tested: 100 nM) | B3
no binding (tested: 100 nM) | B4
no binding (tested: 100 nM) | B5
no binding (tested: 100 nM) | B6
no binding (tested: 100 nM) | B7
no binding (tested: 100 nM) | B8
no binding (tested: 100 nM) | B9
no binding (tested: 100 nM) | B10
no binding (tested: 100 nM) | B11
no binding (tested: 100 nM) | B12
no binding (tested: 100 nM) | B13
no binding (tested: 100 nM) | B14
no binding (tested: 100 nM) | B15
no binding (tested: 100 nM) | B16
no binding (tested: 100 nM) | B17
no binding (tested: 100 nM) | B18
no binding (tested: 100 nM) | B19
no binding (tested: 100 nM) | B20
no binding (tested: 100 nM) | B21
no binding (tested: 100 nM) | B22
no binding (tested: 100 nM) | B23
no binding (tested: 100 nM) | B24
no binding (tested: 100 nM) | B25
no binding (tested: 100 nM) | B26
no binding (tested: 100 nM) | B27
no binding (tested: 100 nM) | B28
no binding (tested: 100 nM) | B29
no binding (tested: 100 nM) | B30
